Columns and labels:
[1] = system: PKCδ; assay: PKCδ siRNA knockdown and CAP37-induced corneal wound healing in vivo; parameters: species or system mouse; conditions: CAP37 250 ng/ml
Protocol: (A) siRNA directed against PKCδ or scrambled siRNA was injected into the mouse conjunctiva. The mouse corneal epithelium was removed with the AlgerBrush II. Corneal abrasions were treated at 0 and 16 hours with rCAP37 (250 ng/ml), or were left untreated (saline vehicle control). Wound healing was monitored at 0, 16, and 24 hours using fluorescein staining. Data are represented as the percentage of wound closure and are expressed as mean±SEM. The data are representative of at least 9 mice per group. *P<0.05 by unpaired t-test as compared to vehicle (normal saline) treated controls. The efficiency of the PKCδ knockdown in each cornea was confirmed by Western blot analysis 24 hours post-injection and determined in comparison to the scrambled siRNA-injected corneas. Data are representative of 22 experimental samples and are expressed as mean±SEM (***P<0.0005 by unpaired t-test). […]
siRNA transfection and gene silencing: Stealth RNAi™ (10 μM, Ambion®, Grand Island, N.Y.) directed against PKCδ or Stealth RNAi™ siRNA Negative Control Hi GC (10 μM, Ambion®) was delivered into the mouse conjunctiva through a 5 μl subconjunctival injection using a 33-gauge needle (Hamilton®, Reno, Nev.). […] Wound closure was quantitated at 16 and 24 hours as described. […]
Protein (20 μg) from each sample of corneal homogenate was analyzed by electrophoresis on a 10% SDS-PAGE gel. […]

[2] = system: mouse cornea; assay: Histology (H&E) of corneal wound closure and re-epithelialization; assay type: in vivo; conditions: rCAP37 250 ng/ml
Protocol: FIG. 23 is a histological analysis of corneal wound closure and re-epithelialization in response to CAP37. Corneas of mice were wounded using the Algerbrush II and treated at 0 and 16 hours with rCAP37 (250 ng/ml) or vehicle (normal saline). Whole eye globes were enucleated at 0, 24, and 48 hours post wounding, and sections were stained using hematoxylin and eosin (H&E). Representative images are shown of (A) CAP37-treated wound at 24 hours, (B) vehicle-treated wound at 24 hours, (C) CAP37-treated wound at 48 hours, and (D) vehicle treated wound at 48 hours. The extent of closure and re-epithelialization of wounds was compared with (E) normal unwounded cornea.
Histology: Whole mouse eyes were collected for histology at 0, 6, 16, 24, and 48 hours post wounding and were immediately placed in Prefer fixative (Anatech LTD., Battle Creek, Mich.) for 20 minutes before being transferred to 70% ethanol. Tissues were paraffin-embedded and cut at a thickness of 5 μm, mounted on SUPERFROSTPLUS® slides (Statlab Medical Products, Lewisville, Tex.), and subsequently deparaffinized, rehydrated, and washed in deionized water. Sections were stained with hematoxylin (Leica Microsystems, Buffalo Grove, Ill.) and rinsed twice in deionized water before being washed in Blue Buffer (Leica Microsystems). […]

B1: CAP37: cationic antimicrobial protein of Mr 37 kDa; recombinant CAP37 produced in human embryonic kidney (HEK) 293 cells (protein)
chain: IVGGRKARPRQFPFLASIQNQGRHFCGGALIHARFVMTAASCFQSQNPGVSTVVLGAYDLRRRERQSRQTFSISSMSENGYDPQQNLNDLMLLQLDREANLTSSVTILPLPLQNATVEAGTRCQVAGWGSQRSGGRLSRFPRFVNVTVTPEDQCRPNNVCTGVLTRRGGICNGDGGTPLVCEGLAHGVASFSLGPCGRGPDFFTRVALFRDWIDGVLNNPGP
- wound healing in response to CAP37, in words ([1]; corneas transfected with PKCδ siRNA, 16 or 24 hours): no significant increase in wound healing
- wound closure after CAP37, in words ([1]; corneas transfected with scrambled siRNA, 24 hours): expected increase in wound closure
- re-epithelialization vs vehicle, in words ([2]; 24 hours): greatly accelerated in comparison to the vehicle-treated wounds
- structural integrity of the epithelium, in words ([2]; 48 hours): regained full integrity

Source: patent US11884710B2, “Peptide compounds and methods of use in wound healing” (priority 2013, dated 2024)
